Results as given in patent US20220267435A1.

Molecular target: CD19 (UniProt P15391)
Assay: cell-based or functional assay

UniProt P15391, sequence (P15391 20-556 limits assumed): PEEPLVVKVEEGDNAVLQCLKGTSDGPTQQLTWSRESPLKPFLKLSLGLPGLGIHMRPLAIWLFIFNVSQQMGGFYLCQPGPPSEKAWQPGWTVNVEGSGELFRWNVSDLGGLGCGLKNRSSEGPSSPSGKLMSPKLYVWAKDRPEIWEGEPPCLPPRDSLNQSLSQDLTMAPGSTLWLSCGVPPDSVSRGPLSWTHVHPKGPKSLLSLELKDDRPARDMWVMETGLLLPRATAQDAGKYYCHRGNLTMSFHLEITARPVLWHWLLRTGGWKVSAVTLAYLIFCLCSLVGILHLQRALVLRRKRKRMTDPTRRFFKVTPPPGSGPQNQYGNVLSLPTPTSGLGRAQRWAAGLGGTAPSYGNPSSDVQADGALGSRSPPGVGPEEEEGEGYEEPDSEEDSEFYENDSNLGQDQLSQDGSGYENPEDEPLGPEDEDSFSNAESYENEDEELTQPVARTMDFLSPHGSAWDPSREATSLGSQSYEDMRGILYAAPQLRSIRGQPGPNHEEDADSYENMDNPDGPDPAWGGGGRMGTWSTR

FMC63-BG concentration at the peak of SNAP-synNotch activation (TagBFP): 0.25 µg/mL | FMC63-BG concentration at which SNAP-synNotch activation is completely inhibited (hook effect): 10 µg/mL | TagBFP MFI; 0.01 million SNAP-synNotch cells, 0.01 million Raji cells, 0.1 µg/mL FMC63-BG, 48 h: 1820 MFI | TagBFP MFI; 0.01 million SNAP-synNotch cells, 0.01 million Raji cells, 1.0 µg/mL FMC63-BG, 48 h: 806 MFI | TagBFP MFI; 0.01 million SNAP-synNotch cells, 0.1 million Raji cells, 0.1 µg/mL FMC63-BG, 48 h: 3400 MFI | TagBFP MFI; 0.01 million SNAP-synNotch cells, 0.1 million Raji cells, 1.0 µg/mL FMC63-BG, 48 h: 2470 MFI | TagBFP MFI; 0.01 million SNAP-synNotch cells, 0.5 million Raji cells, 0.1 µg/mL FMC63-BG, 48 h: 1810 MFI | TagBFP MFI; 0.01 million SNAP-synNotch cells, 0.5 million Raji cells, 1.0 µg/mL FMC63-BG, 48 h: 5350 MFI | TagBFP MFI; 0.01 million SNAP-synNotch cells, 1 million Raji cells, 0.1 µg/mL FMC63-BG, 48 h: 1520 MFI | TagBFP MFI; 0.01 million SNAP-synNotch cells, 1 million Raji cells, 1.0 µg/mL FMC63-BG, 48 h: 4430 MFI | TagBFP MFI; 0.1 million SNAP-synNotch cells, 0.01 million Raji cells, 0.1 µg/mL FMC63-BG, 48 h: 1020 MFI | TagBFP MFI; 0.1 million SNAP-synNotch cells, 0.01 million Raji cells, 1.0 µg/mL FMC63-BG, 48 h: 984 MFI | TagBFP MFI; 0.1 million SNAP-synNotch cells, 0.1 million Raji cells, 0.1 µg/mL FMC63-BG, 48 h: 2540 MFI | TagBFP MFI; 0.1 million SNAP-synNotch cells, 0.1 million Raji cells, 1.0 µg/mL FMC63-BG, 48 h: 2260 MFI | TagBFP MFI; 0.1 million SNAP-synNotch cells, 0.5 million Raji cells, 0.1 µg/mL FMC63-BG, 48 h: 1940 MFI | TagBFP MFI; 0.1 million SNAP-synNotch cells, 0.5 million Raji cells, 1.0 µg/mL FMC63-BG, 48 h: 4570 MFI | TagBFP MFI; 0.1 million SNAP-synNotch cells, 1 million Raji cells, 0.1 µg/mL FMC63-BG, 48 h: 1180 MFI | TagBFP MFI; 0.1 million SNAP-synNotch cells, 1 million Raji cells, 1.0 µg/mL FMC63-BG, 48 h: 4220 MFI | TagBFP MFI; 0.5 million SNAP-synNotch cells, 0.01 million Raji cells, 0.1 µg/mL FMC63-BG, 48 h: 732 MFI | TagBFP MFI; 0.5 million SNAP-synNotch cells, 0.01 million Raji cells, 1.0 µg/mL FMC63-BG, 48 h: 667 MFI | TagBFP MFI; 0.5 million SNAP-synNotch cells, 0.1 million Raji cells, 0.1 µg/mL FMC63-BG, 48 h: 1570 MFI | TagBFP MFI; 0.5 million SNAP-synNotch cells, 0.1 million Raji cells, 1.0 µg/mL FMC63-BG, 48 h: 1490 MFI | TagBFP MFI; 0.5 million SNAP-synNotch cells, 0.5 million Raji cells, 0.1 µg/mL FMC63-BG, 48 h: 1120 MFI | TagBFP MFI; 0.5 million SNAP-synNotch cells, 0.5 million Raji cells, 1.0 µg/mL FMC63-BG, 48 h: 2680 MFI | TagBFP MFI; 0.5 million SNAP-synNotch cells, 1 million Raji cells, 0.1 µg/mL FMC63-BG, 48 h: 955 MFI | TagBFP MFI; 0.5 million SNAP-synNotch cells, 1 million Raji cells, 1.0 µg/mL FMC63-BG, 48 h: 2880 MFI | TagBFP MFI; 1 million SNAP-synNotch cells, 0.01 million Raji cells, 0.1 µg/mL FMC63-BG, 48 h: 550 MFI | TagBFP MFI; 1 million SNAP-synNotch cells, 0.01 million Raji cells, 1.0 µg/mL FMC63-BG, 48 h: 519 MFI | TagBFP MFI; 1 million SNAP-synNotch cells, 0.1 million Raji cells, 0.1 µg/mL FMC63-BG, 48 h: 1160 MFI | TagBFP MFI; 1 million SNAP-synNotch cells, 0.1 million Raji cells, 1.0 µg/mL FMC63-BG, 48 h: 1220 MFI | TagBFP MFI; 1 million SNAP-synNotch cells, 0.5 million Raji cells, 0.1 µg/mL FMC63-BG, 48 h: 979 MFI | TagBFP MFI; 1 million SNAP-synNotch cells, 0.5 million Raji cells, 1.0 µg/mL FMC63-BG, 48 h: 1810 MFI | TagBFP MFI; 1 million SNAP-synNotch cells, 1 million Raji cells, 0.1 µg/mL FMC63-BG, 48 h: 748 MFI | TagBFP MFI; 1 million SNAP-synNotch cells, 1 million Raji cells, 1.0 µg/mL FMC63-BG, 48 h: 1970 MFI | lowest FMC63-BG concentration with significant SNAP-synNotch activation (TagBFP): 0.04 µg/mL
Substance: BG-conjugated FMC63 antibody
